Source: the RNAGym collection of RNA variant scans (doi:10.7554/elife.80360)

B1: HDV Ribozyme (parent)
chain: GGCCGGCAUGGUCCCAGCCUCCUCGCUGGCGCCGGCUGGGCAACAUUCCGAGGGGACCGUCCCCUCGGUAAUGGCGAAUGGGACCCA

Variants of: B1
Experiment: self-cleavage, relative activity (ratio to wild type); higher = more cleavage; co-transcriptional
GGCCGGCAUGGUCCCAGCCUCCUCGCUGGCGCAGGCUGGGCCACAUUCCGAGGGGACCGUCCCCUCGGUAAUGGCGAAUGGGACCCA gave a self-cleavage of 0.146.
Work on GGCCGGCAUGGUCCCAGCCUCCUCGCUGGCGUCGGCUGGGCAACAUUCCGAGGGGACCGUCCGCUCGGUAAUGGCGAAUGGGACCCA yielded a self-cleavage of 0.721.
For GGCCGGCAUGGUCCCAGCCUCCUCGCUGGCGCAGGCUGGGCAACAUUUCGAGGGGACCGUCCCCUCGGUAAUGGCGAAUGGGACCCA, the self-cleavage was 0.163.
Variant GGCCGGCAUGGUCCCAGCCUCCUCGCUGGCGCAGGCUGGGCAACAUUGCGAGGGGACCGUCCCCUCGGUAAUGGCGAAUGGGACCCA has a self-cleavage of 0.125.
GGCCGGCAUGGUCCCAGCCUCCUCGCUGGCGUCGGCUGGGAAACAUUCCGAGGGGACCGUCCCCUCGGUAAUGGCGAAUGGGACCCA showed a self-cleavage of 0.591.
Variant GGCCGGCAUGGUCCCAGCCUCCUCGCUGGCGUCGGCUGGGCAACAUUCCGAGGGGACCGUCCCCUCGGUAAUGGAGAAUGGGACCCA has a self-cleavage of 0.0692.
Variant GGCCGGCAUGGUCCCAGCCUCCUCGCUGGCGUCGGCUGGGCAACAUUCCGAGGGGACCGUCCCCUCGGUAACGGCGAAUGGGACCCA has a self-cleavage of 0.532.
Work on GGCCGGCAUGGUCCCAGCCUCCUCGCUGGCGCAGGCUGGGCAACAUUCCGAGGGGACCGUCCCCUCGGUAAUGGCGAAUGGGACCCG yielded a self-cleavage of 0.14.
GGCCGGCAUGGUCCCAGCCUCCUCGCUGGCGCAGGCUGGGCAACAUUCCGAGGGGACCGUCCCCUCGGUAAUGGCGAAUGGGACCCC gave a self-cleavage of 0.248.
With GGCCGGCAUGGUCCCAGCCUCCUCGCUGGCGCAGGCUGGGCACCAUUCCGAGGGGACCGUCCCCUCGGUAAUGGCGAAUGGGACCCA the self-cleavage was 0.0852.
In the case of GGCCGGCAUGGUCCCAGCCUCCUCGCUGGCGUCGGCUGGGCAACAUUCCGAGGGGACCGUCCCCUCGGUAAUGGCGAGUGGGACCCA, the self-cleavage is reported as 0.525.
For GGCCGGCAUGGUCCCAGCCUCCUCGCUGGCGGCGGCUGGGCAACAUUCCGAGGGGACCGUCCCCUCGGUAAAGGCGAAUGGGACCCA, the self-cleavage was 0.0489.
For GGCCGGCAUGGUCCCAGCCUCCUCGCUGGCGGCGGCUGGGCAACAUUCCGAGGGGACCGUCCCCUCGGUAACGGCGAAUGGGACCCA, the self-cleavage was 0.104.
GGCCGGCAUGGUCCCAGCCUCCUCGCUGGCGUCGGCUGGGCAACAUUCCGAGGGGUCCGUCCCCUCGGUAAUGGCGAAUGGGACCCA showed a self-cleavage of 0.76.
Variant GGCCGGCAUGGUCCCAGCCUCCUCGCUGGCGUCGGCCGGGCAACAUUCCGAGGGGACCGUCCCCUCGGUAAUGGCGAAUGGGACCCA has a self-cleavage of 1.29.
In the case of GGCCGGCAUGGUCCCAGCCUCCUCGCUGGCGUCGGCGGGGCAACAUUCCGAGGGGACCGUCCCCUCGGUAAUGGCGAAUGGGACCCA, the self-cleavage is reported as 0.166.
In the case of GGCCGGCAUGGUCCCAGCCUCCUCGCUGGCGUCGGCUGGGCAACAUUCCGAGGGGACCGUCCCCUCGGUAAUGGCGAAUGGGACCCC, the self-cleavage is reported as 0.795.
GGCCGGCAUGGUCCCAGCCUCCUCGCUGGCGUCGGCUGGGCAACAUUCCGAGGGGACCGUCCCCUCCGUAAUGGCGAAUGGGACCCA gave a self-cleavage of 0.997.
GGCCGGCAUGGUCCCAGCCUCCUCGCUGGCGCAGGCUGGGCAACAUUCGGAGGGGACCGUCCCCUCGGUAAUGGCGAAUGGGACCCA gave a self-cleavage of 0.166.
Variant GGCCGGCAUGGUCCCAGCCUCCUCGCUGGCGUCGGCUGGGCAACAUUCCGAGGGGACCGUCCCCUCGGUAAUGUCGAAUGGGACCCA has a self-cleavage of 0.176.
In the case of GGCCGGCAUGGUCCCAGCCUCCUCGCUGGCGUCGGCUGGGCAACAUUCCGAGGAGACCGUCCCCUCGGUAAUGGCGAAUGGGACCCA, the self-cleavage is reported as 0.891.
With GGCCGGCAUGGUCCCAGCCUCCUCGCUGGCGUCGGCUGGGCAACAUUCCGAGGGGACCGUCCCAUCGGUAAUGGCGAAUGGGACCCA the self-cleavage was 0.831.
Work on GGCCGGCAUGGUCCCAGCCUCCUCGCUGGCGUCGGCUGGGCAACAUUCCGAGGGGACCGUCCCCUCGGUAAUGGCGAAUGGGACCCA yielded a self-cleavage of 0.881.
Work on GGCCGGCAUGGUCCCAGCCUCCUCGCUGGCGUCGGCUGGGCAACAUUCCGACGGGACCGUCCCCUCGGUAAUGGCGAAUGGGACCCA yielded a self-cleavage of 0.751.
Variant GGCCGGCAUGGUCCCAGCCUCCUCGCUGGCGUCGGCUGGGCAACAUUCCGAGGGGACCCUCCCCUCGGUAAUGGCGAAUGGGACCCA has a self-cleavage of 0.734.
GGCCGGCAUGGUCCCAGCCUCCUCGCUGGCGCAGGCUGGGCAACAUUCCGAGGGGAACGUCCCCUCGGUAAUGGCGAAUGGGACCCA gave a self-cleavage of 0.447.
With GGCCGGCAUGGUCCCAGCCUCCUCGCUGGCGUCGGCUGGCCAACAUUCCGAGGGGACCGUCCCCUCGGUAAUGGCGAAUGGGACCCA the self-cleavage was 0.104.
GGCCGGCAUGGUCCCAGCCUCCUCGCUGGCGUCGGCUGGGCAACAUUCCGAGGGGACCGUCCCCUCGGUAAUGGCGAAAGGGACCCA showed a self-cleavage of 0.653.
Work on GGCCGGCAUGGUCCCAGCCUCCUCGCUGGCGUCGUCUGGGCAACAUUCCGAGGGGACCGUCCCCUCGGUAAUGGCGAAUGGGACCCA yielded a self-cleavage of 0.376.
Work on GGCCGGCAUGGUCCCAGCCUCCUCGCUGGCGUCGGCUGGGCAAUAUUCCGAGGGGACCGUCCCCUCGGUAAUGGCGAAUGGGACCCA yielded a self-cleavage of 0.564.
For GGCCGGCAUGGUCCCAGCCUCCUCGCUGGCGUCGGAUGGGCAACAUUCCGAGGGGACCGUCCCCUCGGUAAUGGCGAAUGGGACCCA, the self-cleavage was 0.17.
Work on GGCCGGCAUGGUCCCAGCCUCCUCGCUGGCGUCGGUUGGGCAACAUUCCGAGGGGACCGUCCCCUCGGUAAUGGCGAAUGGGACCCA yielded a self-cleavage of 0.493.
